Data reported in patent publication US20260125649A1, “MEDIUM COMPOSITION AND METHOD FOR CULTURING MESENCHYMAL STEM CELLS” (ACADEMIA SINICA, priority 2018, published 2026).

Key:
Format in all cases: cell-based, human
[1] = system: HMGA2 binding to the promoters of Oct4 and Sox2; test: ChIP of HMGA2 binding to promoters of pluripotency genes; details: EpEX treatment, data not shown
Protocol: MSCs were treated with EpEX (3 μg/mL), and the expression of HMGA2 was detected by immunofluorescence staining. […] To detect the binding of HMGA2 to Oct4 promoters, cross-linked DNA was isolated and then amplified with specific primers by qPCR. […] The gene expression of HMGA2 is detected by qPCR. MSCs were treated with let-7 mimetic and then treated with EpEX (3 μg/mL) for 12 h. The protein abundance of HMGA2 was examined by Western blotting.
We performed chromatin immunoprecipitation (ChIP) with the Pierce™ Magnetic ChIP Kit (Thermo Fisher Scientific), to according the manufacturer's instructions. In brief, the protein-DNA complexes were cross-linked with 1% formaldehyde and quenched by adding glycine to a final concentration of 200 mM. The chromatin complexes were sonicated to an average size of 250 bp by a MISONIX Sonicator 3000. For immunoprecipitation, 4 μg of […] (Novus) was incubated with protein G beads (Invitrogen) for 4 h. The immunocomplexes were further incubated with chromatin for another 4 h. […]
The immunoprecipitated DNA was recovered by a PCR purification kit (Thermo Fisher Scientific), and the purified DNA was subjected to real time quantitative PCR for further analysis. Immunoprecipitation/input was calculated for each gene and each gene was further normalized to the level of mouse β-actin promoter. […]

[2] = system: TACE (Ser435), PS2 (Ser327), ERK1/2; test: Western blotting of phosphorylation of TACE, Presenilin 2 and ERK1/2
Protocol: FIG. 9. EpEX induces the phosphorylation and activity of TACE and γ-secretase. MSCs were stimulated by EpEX for the indicated times, and the activity of TACE and γ-secretase were detected. MSCs were stimulated by EpEX (3 μg/mL) for the indicated times. Western blot analysis was performed to detect the phosphorylation of TACE and Presenilin 2.
FIG. 10. EpEX and EGF induce the phosphorylation of TACE, ERK1/2 and PS2. MSCs were treated with either EGF, EpEX, or co-treated with EGF and EpEX for 5 min. The phosphorylation of ERK1/2 was examined by Western blotting with specific antibodies. […] The phosphorylation of ERK1/2, TACE (Ser435), PS2 (Ser327) were examined by Western blotting with specific antibodies.
Western blotting was performed as previously described (Takahashi et al., 2003). Cells were lysed in lysis buffer (150 mM NaCl, 50 mM Tris-HCl (pH 7.4), 1% Nonidet P-40), containing a protease inhibitor mix (Roche Applied Science). Nuclear fractions and cytoplasmic fractions were separated by the Nuclear/Cytosol Fractionation Kit according to the manufacturer's instructions (BioVision Inc., Milpitas, CA, USA). Protein samples were separated by SDS-PAGE under denaturing conditions, and transferred to a PVDF membrane (Millipore). To probe for pluripotency markers, membranes were incubated with the indicated antibodies against Oct4 (1:1000, Abcam, Cambridge, UK), Nanog (1:1000, Genetex), Lin28 (1:1000, Genetex) or Sox2 (1:1000, Genetex). The CDK and cyclin antibodies were from the CDK and Cyclin Antibody Sampler Kits (Cell Signalling Technology, #9868 and #9869 respectively), including antibodies against cylin D1, D2, E1, and CDK4, CDK9 (1:1000). EpCAM (1:1000, Genetex), phospho-EGFR (1:1000, Cell signaling), EGFR (1:1000, Cell signaling), HMGA2 (1:1000, Cell signaling) or GAPDH (1:10000, Abcam) were also used. After incubation with primary antibody, the membranes were incubated with horseradish peroxidase (HRP)-conjugated secondary antibodies, goat anti-mouse IgG (1:3000, Santa Cruz, CA) or goat anti-rabbit IgG (1:3000, Santa Cruz, CA). […]

let-7 = let-7 expression by qPCR; details: EpEX 3 μg/mL
Description: The expression of let-7 was detected by qPCR. MSCs expressing EGFR shRNA, STAT3 shRNA or Lin28b shRNA were stimulated with EpEX. The expression of let-7 was detected by qPCR. […] Expression of pluripotency factors (Oct4, Sox2, c-Myc and Lin28) was examined by qPCR. MSCs were transfected with a let-7 mimetic, and then stimulated with EpEX. Protein levels of pluripotency factors (Oct4, Sox2, c-Myc, and Lin28) were examined by Western blotting.
Total RNA was extracted using TRI reagent (Invitrogen, CA, USA), and 5 μg of total RNA was reverse transcribed using oligo (dT) primer (Fermentas, Glen Burnie, MD, USA) with SuperScript III reverse transcriptase (Invitrogen). Quantitative real time RT-PCR (qPCR) was performed on cDNA using the Light Cycler 480 SYBR Green I Master kit (Roche Applied Science, Indianapolis, IN) and the LightCycler480 System (Roche Applied Science). The gene expression levels of each sample were normalized to the expression levels of glyceraldehyde 3-phosphate dehydrogenase (GAPDH).

- HMGA2 binding to the promoters of Oct4 and Sox2 [1]: can induce
B1: EpEX: extracellular domain of human EpCAM, 265 amino acids in length (SEQ ID NO: 2) (protein, listed as Homo sapiens)
chain: MAPPQVLAFGLLLAAATATFAAAQEECVCENYKLAVNCFVNNNRQCQCTSVGAQNTVICSKLAAKCLVMKAEMNGSKLGRRAKPEGALQNNDGLYDPDCDESGLFKAKQCNGTSMCWCVNTAGVRRTDKDTEITCSERVRTYWIIIELKHKAREKPYDSKSLRTALQKEITTRYQLDPKFITSILYENNVITIDLVQNSSQKTQNDVDIADVAYYFEKDVKGESLFHSKKMDLTVNGEQLDLDPGQTLIYYVDEKAPEFSMQGLK
- phosphorylation of TACE ([2]; EpEX 3 μg/mL): induced
- phosphorylation of γ-secretase (Presenilin 2) ([2]; EpEX 3 μg/mL): induced
- phosphorylation of ERK1/2 ([2]; EpEX, EGFR-dependent): can induce
- level of let-7 (let-7): decreased
